Results taken from patent publication US20190062420A1 (Janssen / Centocor, published 2019).
One block for each binder: values may come before it.

Experiments:
[1] = molecular target: T1, human FcγRIIB (NM_004001) expressed on cells (human, UniProt P31994 43-310); assay: cell-based or functional assay
T1 sequence: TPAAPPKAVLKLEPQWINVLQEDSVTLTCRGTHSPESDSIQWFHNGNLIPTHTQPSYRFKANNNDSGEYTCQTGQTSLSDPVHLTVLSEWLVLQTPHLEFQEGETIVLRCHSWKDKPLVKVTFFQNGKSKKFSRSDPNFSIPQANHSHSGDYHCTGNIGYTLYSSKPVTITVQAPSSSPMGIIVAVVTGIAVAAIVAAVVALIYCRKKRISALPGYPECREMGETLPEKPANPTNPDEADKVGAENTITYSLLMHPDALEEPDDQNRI

[2] = molecular target: T2, human FcγRIIA (NM_021642) expressed on cells (human, UniProt P12318 36-317); assay: cell-based or functional assay
T2 sequence: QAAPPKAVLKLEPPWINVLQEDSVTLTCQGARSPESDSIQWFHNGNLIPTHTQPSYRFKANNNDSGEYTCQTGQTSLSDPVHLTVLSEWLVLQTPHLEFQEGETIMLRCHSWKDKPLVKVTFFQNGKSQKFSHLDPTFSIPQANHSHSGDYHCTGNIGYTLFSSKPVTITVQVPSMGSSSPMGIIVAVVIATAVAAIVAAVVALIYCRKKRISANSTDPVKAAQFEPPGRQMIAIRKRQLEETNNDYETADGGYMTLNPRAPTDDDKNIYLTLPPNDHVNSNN

[3] = molecular target: T3, human OX40 expressed on HEK-Blue: OX40 cells (human, UniProt P43489 29-277); assay: flow cytometry; HEK-Blue: OX40 cells
T3 construct: also called CD134
T3 sequence: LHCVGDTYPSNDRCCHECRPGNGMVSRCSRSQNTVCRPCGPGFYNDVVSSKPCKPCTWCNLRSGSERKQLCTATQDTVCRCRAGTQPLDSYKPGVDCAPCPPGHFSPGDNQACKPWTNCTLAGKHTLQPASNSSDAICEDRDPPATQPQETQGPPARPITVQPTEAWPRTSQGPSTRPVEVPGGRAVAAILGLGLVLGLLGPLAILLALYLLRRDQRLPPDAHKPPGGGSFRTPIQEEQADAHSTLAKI
Method: (§1) 2×10⁵ cells per well were seeded in 96-well plate and blocked in BSA Stain Buffer (BD Biosciences, San Jose, USA) for 30 min at 4° C. Cells were incubated with test mAbtyrin on ice for 1.5 h at 4° C. After being washed twice with BSA stain buffer, the cells were incubated with R-PE labeled anti-human or anti-mouse IgG secondary antibody (Jackson Immunoresearch Laboratories) for 45 min at 4° C. The cells were washed twice in stain buffer and then resuspended in 150 μL of Stain Buffer containing 1:200 diluted DRAQ7 live/dead stain (Cell Signaling Technology, Danvers, USA). PE and DRAQ7 signals of the stained cells were detected by Miltenyi MACSQuant flow cytometer (Miltenyi Biotec, Auburn, USA) using B2 and B4 channel respectively. Live cells were gated on DRAQ7 exclusion and the geometric mean fluorescence signals were determined for at least 10,000 live events collected. FlowJo software (Tree Star) was used for analysis. Data was plotted as the logarithm of antibody concentration versus mean fluorescence signals. Nonlinear regression analysis was performed by GraphPad Prism 6 (GraphPad Software, Inc.) and EC₅₀ values were calculated.
The binding of mAbtyrins on OX40 expressed on cell surface were investigated by flow cytometry assay described for testing mAbtyrin binding to FcγR. A stable HEK-Blue reporter cell line expressing human OX40 (HEK-Blue: OX40) was established by transfection OX40 expression plasmid (pUNO1-hOX40) into HEK-Blue™ Null 1 cells engineered to express a secreted embryonic alkaline phosphatase (SEAP) reporter gene under the control of NF-κB-inducible promoter (IFN-β minimal promoter). mAbtyrins were incubated with HEK-Blue: OX40 cells and the binding was detected by flow cytometry using a PE-labeled Goat F(ab′)₂ against Human IgG(γ).

[4] = molecular target: T1, human FcγRIIB (NM_004001) expressed on …; assay: flow cytometry; Raji cells (express predominantly FcγRIIB)
[5] = molecular target: T2, human FcγRIIA (NM_021642) expressed on …; assay: flow cytometry; Expi293F cells transfected with FcγRIIA
Method: (§2) Plasmids expressing cDNAs encoding human FcγRI (NM_000566) (SEQ ID NO: 44), FcγRIIA (NM_021642) (SEQ ID NO: 2), FcγRIIB (NM_004001) (SEQ ID NO: 3), and FcγRIIIA (NM_000569) (SEQ ID NO: 45) (Origene) were transiently transfected into Expi293F cells by ExpiFectamine293 transfection kit (Life Technologies). Flow cytometry assays were performed 48 h after transfection.
as §1

[6] = molecular target: T1, human FcγRIIB (NM_004001) expressed on …; assay: flow cytometry; Expi293F cells transfected with FcγRIIB
Method: as §2, §1

[7] = molecular target: T1, human FcγRIIB (NM_004001) expressed on …; assay: flow cytometry; Raji cells (express predominantly FcγRIIB); remark: listed apart in the source
Method: as §1
Raji cell is a cell line derived from B cells that express predominantly FcγRIIB. The binding of mAbtyrins on Raji cells were investigated by flow cytometry assay described for testing mAbtyrin binding to FcγR. Binding of the mAbtyrins were detected by flow cytometry using a PE-labeled Goat F(ab′) against Human IgG(γ).

% activity at 1 µg/ml with Raji cells (HEK-Blue: OX40 NF-κB reporter, relative to 1 µg/ml OX40 ligand) [1]: 99.5%
fold of agonism enhancement upon crosslinking (Raji cells) [1]: 24 fold
Binding to HEK-Blue: OX40 cells (mean signal at 1 µg/ml) [3]: 9320 mean fluorescence signal
fold binding signal over OX40SF2IgG2sigma at 10 µg/mL [4]: ≥ 6 fold
EC50 [5]: 0.532 µg/mL
EC50 [6]: 1.87 µg/mL
Binding to Raji cells mean signals at 10 µg/ml [7]: 8220 mean fluorescence signal
EC50 [7]: > 10 µg/mL
B1: OX40SF2IgG2sigma_R2BS39_HC-C (bispecific antibody)
heavy: QVQLVQSGAEVKKPGSSVKVSCKASGYTFKDYTMHWVRQAPGQGLEWIGGIYPNNGGSTYNQNFKDRVTLTADKSTSTAYMELSSLRSEDTAVYYCARMGYHGPHLDFDVWGQGTTVTVSSASTKGPSVFPLAPCSRSTSESTAALGCLVKDYFPEPVTVSWNSGALTSGVHTFPAVLQSSGLYSLSSVVTVPSSNFGTQTYTCNVDHKPSNTKVDKTVERKCCVECPPCPAPPAAASSVFLFPPKPKDTLMISRTPEVTCVVVDVSAEDPEVQFNWYVDGVEVHNAKTKPREEQFNSTFRVVSVLTVLHQDWLNGKEYKCKVSNKGLPSSIEKTISKTKGQPREPQVYTLPPSREEMTKNQVSLTCLVKGFYPSDIAVEWESNGQPENNYKTTPPMLDSDGSFFLYSKLTVDKSRWQQGNVFSCSVMHEALHNHYTQKSLSLSPGKGGGGGSGGGGSGGGGSGGGGSLPAPKNLVVSRVTEDSARLSWTAPDAAFDSFLIQYQESEKVGEAIVLTVPGSERSYDLTGLKPGTEYTVSIYGVSHGPWYNYGEWRSNPLSAIFTT
light: DIQMTQSPSSLSASVGDRVTITCKASQDVGAAVAWYQQKPGKAPKLLIYWASTRHTGVPSRFSGSGSGTDFTLTISSLQPEDFATYYCQQYINYPLTFGGGTKVEIKRTVAAPSVFIFPPSDEQLKSGTASVVCLLNNFYPREAKVQWKVDNALQSGNSQESVTEQDSKDSTYSLSSTLTLSKADYEKHKVYACEVTHQGLSSPVTKSFNRGEC
notes: mAbtyrin: anti-OX40 antibody OX40SF2, effector silent IgG2sigma, with linker and R2BS39 FN3 domain at the C-terminus of the heavy chain; also called mAbtyrin
% OX40 cell killed by macrophages (ADCP, 1 µg/ml) [2]: 83%

% activity at 1 µg/ml with Raji cells (HEK-Blue: OX40 NF-κB reporter, relative to 1 µg/ml OX40 ligand) [1]: 83.5%
fold of agonism enhancement upon crosslinking (Raji cells) [1]: 17 fold
Binding to HEK-Blue: OX40 cells (mean signal at 1 µg/ml) [3]: 10400 mean fluorescence signal
fold binding signal over OX40SF2IgG2sigma at 10 µg/mL [4]: ≥ 6 fold
EC50 [5]: 0.7 µg/mL
EC50 [6]: 1.56 µg/mL
Binding to Raji cells mean signals at 10 µg/ml [7]: 5380 mean fluorescence signal
EC50 [7]: > 10 µg/mL
B2: OX40SF2IgG2sigma_R2BS6_HC-C (bispecific antibody)
heavy: QVQLVQSGAEVKKPGSSVKVSCKASGYTFKDYTMHWVRQAPGQGLEWIGGIYPNNGGSTYNQNFKDRVTLTADKSTSTAYMELSSLRSEDTAVYYCARMGYHGPHLDFDVWGQGTTVTVSSASTKGPSVFPLAPCSRSTSESTAALGCLVKDYFPEPVTVSWNSGALTSGVHTFPAVLQSSGLYSLSSVVTVPSSNFGTQTYTCNVDHKPSNTKVDKTVERKCCVECPPCPAPPAAASSVFLFPPKPKDTLMISRTPEVTCVVVDVSAEDPEVQFNWYVDGVEVHNAKTKPREEQFNSTFRVVSVLTVLHQDWLNGKEYKCKVSNKGLPSSIEKTISKTKGQPREPQVYTLPPSREEMTKNQVSLTCLVKGFYPSDIAVEWESNGQPENNYKTTPPMLDSDGSFFLYSKLTVDKSRWQQGNVFSCSVMHEALHNHYTQKSLSLSPGKGGGGGSGGGGSGGGGSGGGGSLPAPKNLVVSRVTEDSARLSWTAPDAAFDSFLIQYQESEKVGEAIVLTVPGSERSYDLTGLKPGTEYTVSIYGVQYAAWYLPRHHEASNPLSAIFTT
light: B1 light
notes: mAbtyrin: anti-OX40 antibody OX40SF2, effector silent IgG2sigma, with linker and R2BS6 FN3 domain at the C-terminus of the heavy chain; also called mAbtyrin
% OX40 cell killed by macrophages (ADCP, 1 µg/ml) [2]: 82%
